# Laboratory results: the nanobody polyreactivity screen of Harvey et al. (2022)
# Assay: yeast display, Sf9 membrane polyspecificity reagent, FACS + sequencing; frameworks hold sequencing errors
# Method in brief: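 Galactose-induced (36–48 hours) yeast carrying a synthetic nanobody display library were exposed to 10% biotinylated, detergent-solubilized Sf9 membrane reagent at 4 °C for 1 hour. FACS followed streptavidin microbead enrichment, using low and high (top ~1%) gates for expression (anti-HA) and reagent binding (streptavidin). Colony PCR, MiSeq 2 × 250 sequencing and CDR-length filtering followed. Labels for polyreactivity reflect the gate of origin.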
row,Sequence,polyreactivity (PSR sort gate)
1,QVQIVDSGGGLVQAGGSLRLSCAASGNIFAWYAMGWYTQAPGQVRELVAAINWSRGSTYYADSVKGRFTISRDNAKNTVYLQMNSLKPEDTAVYYCNAVFQDRTDDYDYWGQGTQVTLSS,low polyreactivity
2,QVQIVDSGGGVVQAGGILRLSSAASGYTFGSYDMGWYRQEPGKERELVAAISGGGSTNYADSVKGRFTISRDNAKNTVYLQMNCLKPEDTAVYYCAAYPYLYPLRFEEYDHWGQGTQVTVSS,low polyreactivity
3,QVQIVDSGVGLVQAGGSLRLSCAASGSTFLKNAMGWYRQAPGKERELVAAISYSTTPTYYADSVKGRFTFSRDNAKNTVYLQMNSLKPEDNAVYYCNIASYWGSGFDFWGLGTQVTVSS,low polyreactivity
4,QVQIVESGAGIVQAGGSLRLSCAASGFIFDIYAMGWYRQAPGKERELVASITWDDGSTYYADSVKGRFTISRDNAKNTVYLQINSLKPEDTAVYYCAADFEAGGYSLDYWGQGTQVTVSS,low polyreactivity
5,QVQIVESGAGLVQAGGSLRISCAPSGLTFGYYAMGWYRQAPGKERELVAAISSSGVNTYYADSVKGRFTISRDNAKNTVYLQMNSLKPEDTAVYYCNTVPKPWYSWKYAYDYWGHGTQVTVSS,high polyreactivity
6,QVQIVESGAGLVQAGGSLSLSCDASGFIFVWYAMGWYRQAPGKERELVAAISWTGGSTYYADSVKGRFTISRDNAKNTVYLQINSLKPEDTAVYYCAATYEFYPEELDYWGQGTQVTVSS,low polyreactivity
7,QVQIVESGGGIVQAGGSLRLSSAASGSTFSFYVMGWYRHAPGKEREWVAAISWSSVGTYYADSVKGRFTISRDNAKNTVYLQMNSLKPDDTAVYYCAAERYRRVAKHGYWGQGTQVTVSS,high polyreactivity
8,QVQIVESGGGLVQAAGSLRLSCAASGSTFQTYAMGWYRQAPGKERELVAAITSGGSTNYADSVKGRFTISRDNAKNTVYLQMNSLKPEDTAVSYCAVRQIYQTSDHRLQYDYWGQGTQVTVSS,low polyreactivity
9,QVQIVESGGGLVQAGGRLRLSCAYSGLIISWYAMGCDIQSPGKERELVAAISGSVGSTYYADPVKGRFTISRDNAKNTVYLQMNSLKPEDTAVYYCAARSKDGGGPMYYWGQGTQVTVSS,high polyreactivity
10,QVQIVESGGGLVQAGGSHRISCAASGLIFQSNAMGWYRQAPGKESELVAAISTAGSTNYADSVKGRFTISRDNAKNTFYFQMNSLIPQDTAVYYFAAQVSTPYRYPRQMLYDSWGQGTQVTVSS,low polyreactivity
11,QVQIVESGGGLVQAGGSHRLSCAASGSTFDAYAMGWYRQEPGKEREMVAAISTRGGRTYYADSVKGRFTISRDNAKNTVYLQMNSLKPEDTAVYYCNAVVARVNVRGTPAFDYWGQGTQVTVSS,high polyreactivity
12,QVQIVESGGGLVQAGGSLPLSSAPSGSIFAPYAMGWYRQAPGKERELVAAINISGGTYYADSVKGRFTISRDNAKNTLYLQMNSLKPEDTAVYYCAARYLYGYYGFDYWGQGTQVTVSS,high polyreactivity
13,QVQIVESGGGLVQAGGSLRISCAASGRTFRWYAMGWYRQAPGKERELVASITWSGGSTYYADSVKGRFTISRDNAKNSVYLQMNSLKPEDTAVYYCAAEKRYTYVGGPFNYWGQGIQVTVSS,high polyreactivity
14,QVQIVESGGGLVQAGGSLRLICAASGSTFGLNAMGWYRQAPGKERELVAAITRSDITNYADSVKGRFTISRDNAKNTVYLKLNSLKPEDTAVYYCNKTPDRHRRYFGYGYWGQGTLVTVSS,low polyreactivity
15,QVQIVESGGGLVQAGGSLRLICAASGYTFTIYAMGWYRQAPGKERELVAAITTIGGRTYYADSVKGRFTISRDNAKNTVYLQMNSLKPEATAVYYCAARARVEGGYRGKFGYWGQGTQLTVSS,high polyreactivity
16,QVQIVESGGGLVQAGGSLRLRCAASGRIFAYYAMGWYRQAPGKERELVAAISRSGVSTYYADSVKGRFTISRDNAKNTVYLQMNSLKPEDTAVYYCAARWRSGFTSGDYWGQGTQVTVSS,low polyreactivity
17,QVQIVESGGGLVQAGGSLRLRCAASGRIIYKNAMGWYRQAPGKERELVAAITTSGGSTYYADSVKGRFTISRDNSKNTVYLEMNSLKPEDTAVYYCATRGHYRQTINYWGQGTQVTVSS,high polyreactivity
18,QVQIVESGGGLVQAGGSLRLSCAASGFIFDNNAMGWSRQAPWKESELFATITSGGRTNYADSVKGRFTISRDNAKNTVYLRMNCLKPEDTAVYYCAAFYYLCSRRKTRDYWGQGTQVTVSS,low polyreactivity
19,QVQIVESGGGLVQAGGSLRLSCAASGFTFRGYAMGCYRQAPAKERELVAAISRSGGSTNYADSVKGRFTISRDNAKNTVYLKMNSMKPEDTAVYYCAAGWNPYDYWGQGTQVTVSS,high polyreactivity
20,QVQIVESGGGLVQAGGSLRLSCAASGIFYAMGWYRQAPWTKRELDDAISSVGSTNYADSVKGRFSISRDNAKNTVYLQMNSLKPEDTAVYYCAAYFYTYPVDRYGSYYWGQVTQVTVSS,low polyreactivity
21,QVQIVESGGGLVQAGGSLRLSCAASGIIFRYYAMGWYRQAPGKERELVAAISSSGVSTYYADSVKGRFTISRDYAKNTVYLQMNSLKPEDTAVYYCAAVTTWRIDYWGQGTQVNVSS,high polyreactivity

row,Sequence,polyreactivity (PSR sort gate)
1,QVQIVESGGGLVQAGGSLRLSCAASGITFHDYAMGWDRQEPGQERELVATIRSSTYYADSVKGRFTISRDTAKNTVYLQMNSLKTEDTAVYYCNVRLSYSYISPSDWNFDYWGQGTQVTVSS,low polyreactivity
2,QVQIVESGGGLVQAGGSLRLSCAASGITFRRNAMGWYRQAPGKERELVAVITSVGTTYYADSVKGRFTISRDNAKNTVYLQMNSLKPEDTAVYYCAARFYWGQGTQVTVSS,high polyreactivity
3,QVQIVESGGGLVQAGGSLRLSCAASGRIFCGNVMGWYRQAPGKERELVAAISGRGGRTYYAHSVKGRFTISRDNAKNTVYLQMNSLKPEDTAVYYCAASTGEEISGKRYNYWGQGTQVTVSS,high polyreactivity
4,QVQIVESGGGLVQAGGSLRLSCAASGRIFDSYAMGWYRQAPGKERELVAAISQNSGSTYYADSVKGRFTISRDNEKNTVYLQMNSLKPEDTAVYYCAATRKTKRFGYWGQGTQVTVSS,high polyreactivity
5,QVQIVESGGGLVQAGGSLRLSCAASGRIFHWYTMGWYRQAPGKERELVAAISGSGGSTHYADSVKGRFTISRDNAKNTVYLQMNSLKPEDTAVYYCAADDGFYGQDLDYWGQGTQVTVSS,low polyreactivity
6,QVQIVESGGGLVQAGGSLRLSCAASGRIFQPYAMGWYRQATGKERELVAAITRRAGSTYYADSVKGRFTISRDNANNTVYVQMNSLKPEDTAVYYCAARGLYWAYEMEYWGQGTQVTVSS,low polyreactivity
7,QVQIVESGGGLVQAGGSLRLSCAASGRIFTVYGKGWYRQAPGKERELVAAISWSGGGTYYADSVKGRFTISRDNAQNTVYLQKNSLKPDDTAVYYCNADRQYTWSLVFFSSEYDYWGQGTQVTVSS,low polyreactivity
8,QVQIVESGGGLVQAGGSLRLSCAASGRIFWAYAMGWYRQAPGKERELVAAITSGGSTYYADSVKGRFTISRDNAKNTVYLQMNRLKPDDTAVYYCAVGSNWVDDSPEDEYWGQGTQVTVSS,low polyreactivity
9,QVQIVESGGGLVQAGGSLRLSCAASGRIIKGYAMGWYRQAPGKDMELVADISEDGGSTYYADSVKGRFTISRDNAKNTVYLQMNSLKTEDTAVYFCAAEYYVVNYAIGYDYWGQGTQVTVSS,low polyreactivity
10,QVQIVESGGGLVQAGGSLRLSCAASGRTFVVNAMGWYRQAPGKERELVASISNKGSTYYADSVKGRFTISRDNAKNTVYLQMNSLNPEDTAVYYCAADEYWSWDGTRYGVHYYYWGQGTQVTVSS,low polyreactivity
11,QVQIVESGGGLVQAGGSLRLSCAASGRTFWGNAMGWYRQAPGKERELVASISSRGSSTYYADSVKGRFTISRDNAKNTVYLQMNSLKPEDTAVYYCAARTHYFPWPWYVWDYYSDGYWGQGTQVTVSS,low polyreactivity
12,QVQIVESGGGLVQAGGSLRLSCAASGRTLYQYSMGWYRQAPGKERELVAAITTSTGNTYYADSVKARFTISRDNAKYTVYSQMNSLKPEDTAVYYCAADTVWRLDYWGQGTQVTVSS,low polyreactivity
13,QVQIVESGGGLVQAGGSLRLSCAASGRTYKYYAMGWYRQAPGKERELDAGITSGSSTSYADSVKGRFTISRDNAKNTVYLQMNSLKPEDTAVYYCAAGIYPYRYDYWGQGTQVTVSS,high polyreactivity
14,QVQIVESGGGLVQAGGSLRLSCAASGSIFSDYVMGWYRQAPRKERELVATISRGGGSTFYADSVKGRFTISRDYAKITVYLQMNSLKPEDTAVYYCAAPPGPSGAKYDYWGQGTQVSVSS,low polyreactivity
15,QVQIVESGGGLVQAGGSLRLSCAASGSIFVNNAMGWYRQAPGKVRELVARISFSGGSTYYADSVKGRFTISRDNAKNTVYLQMISLNPEDTAVYYCAKTVLRTESGWWIKFDYWGQVTQVTVSS,low polyreactivity
16,QVQIVESGGGLVQAGGSLRLSCAASGSIFYYYAMGWYRQAPGNERELVADISISGGSTYYADSVKGRFTISRDTAKNTVYLQMNSQKPEDTAVYYSAATSTYRSYLEYDYWGQGTQVTVSS,low polyreactivity
17,QVQIVESGGGLVQAGGSLRLSCAASGSISVPYGMGWYRQAPGKERELVAAISGGSTNYADSVKGRFTISRDNAKNTVYLQMNSLKPEDTAVYFCAADWWAWYTRYDYWGQGSQVTVSS,low polyreactivity
18,QVQIVESGGGLVQAGGSLRLSCAASGSTFPWYVMGWYRQAPGKERELVAAISWSGGRTYYADSVKGRFTISRDNAKNTVYLQMTRLKPEDRAVYYCAAEFKLVSHTYYYWGQGTQVTVSS,low polyreactivity
19,QVQIVESGGGLVQAGGSLRLSCAASGSTFSYNAMGWYRQAPGKERELVATISNTDSTNYADSVKGRFTISRDNAKNTLYLQMNSLKPEDTSVYSCAAVVSTVDGMEYWGQGTQVNVSS,low polyreactivity
20,QVQIVESGGGLVQAGGSLRLSCAASGSTFVDYDMGWYRQAPGKERELVAGITTGGSTNYADSVKGRFTISRDNAKNTVYLQMNRLKPEDTAVYYCAATVYGIYYYGRDRYDYWGQATQVTVSS,low polyreactivity
